Some results are limits rather than exact numbers.

The data set relates to Saccharomyces cerevisiae. In words: transcriptional activation domain activity (GFP:mCherry ratio, weighted mean of sorted bins, harmonized to initial dataset scale) (arbitrary fluorescence ratio units); higher = stronger transcriptional activation. The conditions noted are these: beta-estradiol 1 µM; induction time 4 h. In a few lines: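 For this assay, yeast diploids with a GFP reporter carried barcoded protein tiles at URA3, each fused to an estradiol-inducible synthetic transcription factor. Induction was a 1:5 dilution into SC with 1 uM beta-estradiol for 4 hours at 30 °C, followed by sorting into 8 bins by GFP:mCherry ratio and barcode sequencing. Tiles under 50 reads were dropped, and activation activity was calculated as the read-weighted mean of bin median fluorescence, averaged across barcodes and linearly mapped onto the initial dataset scale.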
For “TVKEEEEEVKAKPAAAKVSRVRKAAAAKAQSEPEKDVAGPAPKTRAARTRAAS”, the “transcriptional activation domain activity” value worked out at 48100.
For the sequence “MEGLVVCSVWIFSCVWSLWLALCIWIFCLFVGVWLVRIWRGPGLYLLFFFFFL”, the “transcriptional activation domain activity” value came out at 71000.
For “DQCDITPEMRKEYNIDGADKANNPELAMDWLLVHLLFRTLQLLPNMFRAWLFN” the value was 56200; for “ESVSESESASASESAAEEASAAPEEDAMWSNIMKKFARRDEEESVSESASASE”, 54900; for “SHLDRRSNQFCRVQFCYKHLLLLWFFLLLFLAYPCQLLCIIIFPNLVSSLCRF”, 31200.
As for “MKSHDLFFFLLLLFQLTSFSSIQLFPAVRVILHVLSHLFMVLHAYCCLPPFIF”, the “transcriptional activation domain activity” value came out at 64400.
For the sequence “GEIVQIDLPLYGKSGQNRGKAALEYSDSLSAQKAASHMTGGQIDGAVVKVELS”, the “transcriptional activation domain activity” value was found to be 66000.
For “PSLYLVTFFRDSLEMIMISLKYFRYEAHKVVNILPILPDLYTIVRTLVNKCVR” the value was 43700.
On to “MDLFFLLHFFIFIFLWHWLGSCLVWLFLVWLWGVFSFFFYYIFSCVSFFGSAI”, for which the “transcriptional activation domain activity” value was 61300.
In the case of “MVGLVGFWVLFLFFLCPFLFSCPSPSPPLRPSLYIFQISYGSFFSCFSFLFFS”, the “transcriptional activation domain activity” value was found to be 68700.
For “SQVCLDSFGLLFAVVAYPCTSLLLLIFILASFLTFQAIFTLFPLFRLLAFFCL”, the “transcriptional activation domain activity” value worked out at 41700.
“MLLLLYLILYLMMMLFAVCALISIYLCIYTLPLLSFPFFLALFYFILFLYVYL”: the “transcriptional activation domain activity” value was determined as 45200.
As for “CIFFFSYYGIRILQRGVLLLFILLFYISLCDPLLFPPLFFFSSSFLGRAFFLY”, the “transcriptional activation domain activity” value was 89800.
For “LRLVYCQVKKKKYKSINRYVAIHELSYNVMIWRFLAIYHSSQRLKWSIFLLSF”, the “transcriptional activation domain activity” value was found to be 42100.
For the sequence “NPIIRVRGIGLSLTSICFLHCYWILAQVVYPIGQSLPVILAYDIQYFFMGLWF”, the “transcriptional activation domain activity” value came to 56900.
Take “MAPTTPTNSNGETPVKRGRGRPPKPEHEKKLKPAPSGRGRGRPKGSGVKKTGG”: the “transcriptional activation domain activity” value stood at 39100.
Take “MAEKRATSTAPGPSTSLQRGKACLRCRKRKMRCDGSKPACQQCVRAKKADGCE”: the “transcriptional activation domain activity” value was 21500.
Take “SMLNGFAGLDDIPMENILRFLNRFVVNNLLLDILCQCSRHARRTLAGNIFRAA”: the “transcriptional activation domain activity” value is 47000.
The figure for “MISLFFFLFLYHIYVFLLLLLLYFLPSLPYPPIYTLYIVSLIIPHLVYLLQNS” is 31400; for “MADAVAEGTAKLQLDEETGEMVSKGELKKRLQKRAKKAAQAKAKADAPAPSAA” it is less than 6570; for “KRKPRRPVRVDKDPEEEEEEDKEEEEEEEEDPRGKEKKKAKPKRKAKAKAAED” it is 21400.
In the case of “SSKHDYKRSRRSKTKDEDDDDDDEDRKRRKRRKEREHSKKKEKEERRSVLTGK”, the “transcriptional activation domain activity” value was determined as 30300.
Turning to “SSNGRKSSKRRSRDKDEDEDEDEEDRKRRKRRRERERSKEKEERRSVLTGKKI”, the “transcriptional activation domain activity” value turned out to be 27200.
Consider “MFIYVFRPCNCIHLFIICQFSLFLITLLLYLFDLFFQLPFLLCINLTFCVAMC”, for which the “transcriptional activation domain activity” value came to 64900.
Turning to “APAAADEEQEGESKNKKKKKKKGAKKAEADEEAVEAAAPAKGKKKGGAPIAAL”, the “transcriptional activation domain activity” value is 54700.
With “EPRSLPASDLNKITLAPPNEESRMPKSMLELTSYSSDLPPELVDIIPKTDLTV”, the “transcriptional activation domain activity” value came out at 58300.
With “MLSVSLSFPFLLFFFSVSIFLLLLLLFSVSFILLLSLFFCSSFSFFNSFMVFF”, the “transcriptional activation domain activity” value turned out to be 43100.
For the sequence “EKDKGEPADGAAAPVVKRKRGRPPNKDRNKPPPAPAPAPPPAGASASTPASRL”, the “transcriptional activation domain activity” value came to 33400.
For the sequence “GEEGKAEEAAGEEGKAEAEAGAESEKSAEGEGEASAEEGASGEEAAGEKAAGE”, the “transcriptional activation domain activity” value is 26800.
As to “GEGSAEDGGGSSEPRRLRRSHEACSRCRGKKIKCDSKHPRCTACATANTQCTQ”, the “transcriptional activation domain activity” value was 25100.
Take “LIFCVHMTVILFVILFCYLNRGFVPMTNGKYFYADFRISNTWGFITSLTLVLN”: the “transcriptional activation domain activity” value was 38100.
As for “MTLVVMMILPPLASLDCFLLSFFFSLLLSPTFPLVLFFSVYKFFHFSTFPFFV”, the “transcriptional activation domain activity” value was 54800.
The figure for “PLVVDFPQAVEYFPEMALKYMMCWLSRFDLLPGERLGCRVLAAFIHLTIHRVS” is 57200.
On to “CIIFPHPFFSYSFFSFSPLFFFFFPSFLSFLSFLPSFLFFFSIVTPSSSSSTY”, for which the “transcriptional activation domain activity” value stood at 55100.
“GELQFCYITGMVLGNLACMEQWGNIVRVIFRAFRLALDSPVFFRKVIQAIHTQ”: the “transcriptional activation domain activity” value was found to be 80700.
The figure for “FSLLLDSYIFLFNYCPVRYRYGYLIKDLVQNASRIKSIYTNSDLKFLFSFVWM” is 53800.
As to “PSEEKTVQKPDTAVAPPEDKAEPTPDATKPKEKKSRKKSKKAAEEKADGASTS”, the “transcriptional activation domain activity” value worked out at 25300.
Turning to “HSSAPASPASPSPNSAPTPPATTPPPPPSPAAPRRTHSPPTPGTRRPSTTTPS”, the “transcriptional activation domain activity” value was found to be 53500.
For “AIRRSFAHVFCLCCIMEFPTFILGLGSLYPSLRSNVFFALSFFATRIVLHLML”, the “transcriptional activation domain activity” value was found to be 65700.
As for “ADCAVIGVNSEEEATELPRAYVVHAKGIPPSEQAAFGVSVQEWVKSRVARHKQ”, the “transcriptional activation domain activity” value turned out to be 80600.
For “EQRAEGVGERRGEGGGEAQRDGAADARRHERAAEGPVRHGERRREVQEGVQGV”, the “transcriptional activation domain activity” value amounted to 23500.
The figure for “GDDETDAPAKPKEGEDEKKPSSASPEDDLRSSRRSHKKREPGHRDRDRERDRD” is 15300; for “MCQWWQIVLIRWMNLQILKYWAVEVKPLMMMWRRLIVIIIVILYRNFFFFFLM” it is 30900; for “MLPLVLLLLLLLLLLLLLLLLLLLLLLLLLIMMMIMMMMFLLFLLLLRARVRQ” it is 13600.
In the case of “WLILIRIINPIIMYFFVSCFYSLLSLAFQVPFNRFYGSSGFVIYWMMSWMAMC”, the “transcriptional activation domain activity” value amounted to 47100.
With “AAPVVAKKDDKKDKKKEEKKGEKEEKKPADEKKGGDKPKKEKKKAEKKPAAAP”, the “transcriptional activation domain activity” value came out at 22200.
Consider “MEQSMGFMIHVYITVIPLGDVYEVLVFLILRSILPLPPGFLCLSLLLHDLFFI”, for which the “transcriptional activation domain activity” value was 62400.
Regarding “GWKYIILAACDVEGNFLVVKVGLFSTTILLVMTLRYQAYQYTNLLSCMLLDAW”, the “transcriptional activation domain activity” value was 43000.
For the sequence “YSLNIFIFGNGRYGSTIQANLHGLRSFIRLVPKDCLALIRHLHLHIFFSGLPD”, the “transcriptional activation domain activity” value is 54800.
Consider “FHIGIYARVLMCLLLDKKARPLPEDMKLWVDLLRWLKGGSPGGALSFFTYMEL”, for which the “transcriptional activation domain activity” value is 30900.
Turning to “STMHSNIGYIATLCLNLTLLLPLKDHPMVNNYVLVLVNSYWVLTGIWWFIFQQ”, the “transcriptional activation domain activity” value turned out to be 35000.
For the sequence “NLLLFPGISFKTQLLYAIVFCTRYLDLFIRFVSIYNTLMKIFFIGSSFYILYL”, the “transcriptional activation domain activity” value was 67300.
Turning to “YYPLFLGRLLPLSLLSFFVYFILFTFAFLPQLAFLYIFHGRGAWLNAIFLVLG”, the “transcriptional activation domain activity” value came to 44200.
“EVEGEGEDGEEEAAPPPKKVRASGRSKKIEYKEESEEEAPAPKKTRGKKAATK”: the “transcriptional activation domain activity” value worked out at 6720.
With “SNPKELFFIRILLDLSWIDMRVAICSLRPILGEEPRKFREMLLVLPTLCSEIY”, the “transcriptional activation domain activity” value was determined as 66100.
On to “MYLEVRCQLLGCMAIWWDNWFRLDLLSLVSAYRILLLCMGEFLIWKFWFIRLF”, for which the “transcriptional activation domain activity” value amounted to 60000.
The figure for “LRPHRYFHTNQIYYAAILIDLILRFTWLSRLSVRINWINDLESGVFVLMFLEV” is 62500; for “LMLQRLDIIRQILYLYRDPHLQIVLNRYYKSFNRRKIFLMNPVINALSNMPYF” it is 47500.
For “IWRCTLFLLYGGHFEAALTCIRASASIGTFRDINVACGRNVAFFLSVLIEKKR” the value was 63000.
As for “CGLCALVYHSLRFQLQSNMDVLLFRYNGSYKMVVVAATTKHLLLEDIKIKLLC”, the “transcriptional activation domain activity” value worked out at 45700.
The figure for “AFLLPFANHHRFVSYCLYVFGFIFFVFSLEKGYYKQQFTQFCVTHMCLLLVVF” is 39800.
The figure for “MTEREPDNEQQPRKRIAVACGRCRKRKIRCSGDPGNGEPCTNCRNANAEPCQF” is 38700; for “TAANGKKSKGNKGGNAAGANANANAKANGNTKNGNGNSRNGNNKRMRALGSAM” it is 25700.
As for “LIVVTLSWDVAVIITFLKHRITLRRLKMQSFLSLSFLFKMLIICIFRFFIGVC”, the “transcriptional activation domain activity” value is 88200.
On to “LTHLRQLLEVKRTRRSLFVFRKTLGRIIRPVITWTYIFFFTLSMWTKPIVPLI”, for which the “transcriptional activation domain activity” value stood at 36900.
The figure for “LLRRIMRYRNMHLLLSYAVELGFLRAIILCGRPSLSKVHHHVRFFLRDLLPAS” is 38800.
The figure for “EAEDGAEKPKRGRKRKEPPAEAEANGDEPAPAAEEEEAPPAKKTKPSSSPLAK” is 27800; for “GELRLPELQAIGISGGMSLLQDAVFMDGRPEASPLFKIIHLLKRASHWKLGRS” it is 46300; for “LPSFLFSSLYCFSLLFLSFLSFFPFLTLLLLFSLFPSLSLSLFFSLLFSPQRL” it is 63400.
Take “YVAPGVASPIPVNYIWTPFASWRLVAILISLLSLYSWGMLIFFFWFLFWLLLY”: the “transcriptional activation domain activity” value was less than 6570.
Regarding “MSRVLPEKLPLHLQAACLPQRDLLTALPVVALRCYTDGPQLLRGLVCCLCDMW”, the “transcriptional activation domain activity” value is 61600.
Consider “TSAFGGGNTGGGLFGQQNKPTTGFGSSPAPAGGLFGGGSGTTTSTPAFGAAAA”, for which the “transcriptional activation domain activity” value was found to be 37300.
The figure for “KYNLALILAGFFRFIPWISVLLLLLLSLSPRARSLFPWPISSILLLYTLADTI” is 39400.
Regarding “VKHLKLSRDKSSPTFKFDSLYREILSSHPELMFILTAMLLWPDLVSDYHILRV”, the “transcriptional activation domain activity” value was found to be 30200.

For the origin of these results see the supplement of paper PMC12636428.
